Like-named read-outs stand apart in the source and are kept apart here.
Legend:
TGF-β3 = TGF-β3 (UniProt P10600); assay: cell-based or functional assay
TGF-β1 [1] = target: TGF-β1 (UniProt P01137); assay: cell-based or functional assay
TGF-β1 [2] = target: TGF-β1 (UniProt P01137)
TGF-β1 [3] = target: TGF-β1 (UniProt P01137); remark: listed apart in the source

Chain of T22d35 (P37173 other isoform, or with tags, fused parts or gaps limits assumed): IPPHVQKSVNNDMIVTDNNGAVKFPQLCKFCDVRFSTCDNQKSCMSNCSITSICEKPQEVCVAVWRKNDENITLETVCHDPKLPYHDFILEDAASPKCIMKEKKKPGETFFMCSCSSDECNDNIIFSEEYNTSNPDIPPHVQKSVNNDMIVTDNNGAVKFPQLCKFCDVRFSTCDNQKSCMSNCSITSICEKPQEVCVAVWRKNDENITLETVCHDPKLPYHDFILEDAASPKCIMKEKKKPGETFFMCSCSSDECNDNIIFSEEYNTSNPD
Chain of TGF-β1 (P01137 279-390 limits assumed): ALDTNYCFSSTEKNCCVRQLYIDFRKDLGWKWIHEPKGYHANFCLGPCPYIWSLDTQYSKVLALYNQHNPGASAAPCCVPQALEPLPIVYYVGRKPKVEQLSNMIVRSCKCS
Chain of TGF-β3 (P10600 301-412 limits assumed): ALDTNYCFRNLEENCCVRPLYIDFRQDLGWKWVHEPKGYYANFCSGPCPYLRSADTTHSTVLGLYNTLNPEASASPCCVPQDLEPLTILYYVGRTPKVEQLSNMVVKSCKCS

Av IC50, TGF-β neutralization, Mv1Lu cell luciferase reporter assay (TGF-β3) [nM] | Av IC50, TGF-β neutralization, Mv1Lu cell luciferase reporter assay (TGF-β1 [1]) [nM] | IC50, A549 cell IL-11 release assay [table] (TGF-β1 [2]) [nM] | Fold Change Fc-T2m, A549 cell IL-11 release assay [table] (TGF-β1 [3]) [fold] | Fold Change T22d35, A549 cell IL-11 release assay [table] (TGF-β1 [3]) [fold] | IC50, A549 cell IL-11 release assay [table] (TGF-β1 [3]) [nM] | IC50, A549 cell IL-11 release assay (TGF-β1 [1]) [nM] | IC50, A549 cell IL-11 release assay (second set, FIG. 4C) (TGF-β1 [1]) [nM] | Substance
0.323 | 0.506 |  |  |  |  |  |  | T2-hIgG1Fc fusion from R&D
0.033 | 1.23 | 0.526 | 0.1 | 1 | 0.58 | 0.5 | 0.5 | T22d35 (from UniProt P37173 24-222) (receptor)

Reference: US20200231652A1
